IC50 data for five molecules are collected here from publication PMC4270787 (PLoS ONE, 2014).

In general, IC50 refers to the concentration needed to halve the response being measured. Low values mean greater potency in that assay, high ones weaker potency in that assay.

A value given as a limit tells only on which side of the number the result lay.

What all share (test): radioligand binding
For assay [1], the target named is acetylcholine-binding protein from Aplysia californica (A. californica).
The target of assay [2] is T1, T. californica muscle-type nicotinic acetylcholine receptor (T. californica, UniProt P02710 25-461; P02712 25-493; P02714 18-506; P02718 22-522).
T1 construct: also called T. californica nAChR; Torpedo nAChR
The following applies: one partner purified.

In assay [3] the target is T2, human neuronal α7 nicotinic acetylcholine receptor (human, UniProt P36544 23-502).
T2 construct: also called human α7 nAChR; α7 nAChR
The following applies: one partner purified.

Assay [4] addresses T3, acetylcholine-binding protein from L. stagnalis (L. stagnalis, UniProt P58154 20-229).
T3 construct: also called L. stagnalis AChBP
The following applies: both partners purified.

The molecule “PLA2 CM-II from N. kaouthia venom (from UniProt P00596 28-146) (enzyme)” had an IC50 in assay [1] greater than 100 µM.

Take “PLA2 vurtoxin from V. ursinii venom (from UniProt F8QN54 17-138) (enzyme)”: the IC50 in assay [1] is greater than 30 µM.

B1: PLA2 vurtoxin from V. ursinii venom (enzyme)
chain: SLLEFGMMILEETGKNPLTSYSFYGCYCGVGGKGTPKDATDRCCFVHDCCYGNLPDCNPKIDRYKYHRKNGAIVCGKGTSCENRICECDRAAAICFRKNLKTYNHIYKYYPDFLCKKESEKC
Regarding B1, the IC50 was 0.26 ± 0.02 µM in assay [2], 14 ± 5 µM in assay [3] and greater than 30 µM in assay [4].

B2: PLA2 CM-II from N. kaouthia venom (enzyme)
chain: NLYQFKNMIQCTVPNRSWWDFADYGCYCGRGGSGTPVDDLDRCCQVHDNCYNEAEKISRCWPYFKTYSYECSQGTLTCKGDNDACAAAVCDCDRLAAICFAGAPYNNNNYNIDLKARCQ
As for B2, the half-inhibitory concentration (IC50) in assay [2] came out at 1.2 ± 0.1 µM; in assay [3], 3.2 ± 0.3 µM; in assay [4], 1 ± 0.03 µM.

B3: PLA2 Vur-PL2 from V. ursinii venom (enzyme)
chain: NLYQFGKMIRYKTGKSALLSYSDYGCYCGWGGQGKPKDATDRCCFVHDCCYGRVNGCDPKLTIYSYSFENGDIVCGGDDSCKRAVCECDRVAAICFGENLNTYDKKYKNYPSSQCTETEQC
On to B3, for which the IC50 was greater than 100 µM in assay [2], 29 ± 2 µM in assay [3] and greater than 30 µM in assay [4].
